Test results taken from patent US20240425601A1 (University of California, published 2024).

Biological target: cell surface-expressed human αvβ8 (human, UniProt P06756 31-1048; P26012 43-769)
Assay: cell-based or functional assay

cell surface-expressed human αvβ8, sequence (P06756 31-1048, chain 1 of 2): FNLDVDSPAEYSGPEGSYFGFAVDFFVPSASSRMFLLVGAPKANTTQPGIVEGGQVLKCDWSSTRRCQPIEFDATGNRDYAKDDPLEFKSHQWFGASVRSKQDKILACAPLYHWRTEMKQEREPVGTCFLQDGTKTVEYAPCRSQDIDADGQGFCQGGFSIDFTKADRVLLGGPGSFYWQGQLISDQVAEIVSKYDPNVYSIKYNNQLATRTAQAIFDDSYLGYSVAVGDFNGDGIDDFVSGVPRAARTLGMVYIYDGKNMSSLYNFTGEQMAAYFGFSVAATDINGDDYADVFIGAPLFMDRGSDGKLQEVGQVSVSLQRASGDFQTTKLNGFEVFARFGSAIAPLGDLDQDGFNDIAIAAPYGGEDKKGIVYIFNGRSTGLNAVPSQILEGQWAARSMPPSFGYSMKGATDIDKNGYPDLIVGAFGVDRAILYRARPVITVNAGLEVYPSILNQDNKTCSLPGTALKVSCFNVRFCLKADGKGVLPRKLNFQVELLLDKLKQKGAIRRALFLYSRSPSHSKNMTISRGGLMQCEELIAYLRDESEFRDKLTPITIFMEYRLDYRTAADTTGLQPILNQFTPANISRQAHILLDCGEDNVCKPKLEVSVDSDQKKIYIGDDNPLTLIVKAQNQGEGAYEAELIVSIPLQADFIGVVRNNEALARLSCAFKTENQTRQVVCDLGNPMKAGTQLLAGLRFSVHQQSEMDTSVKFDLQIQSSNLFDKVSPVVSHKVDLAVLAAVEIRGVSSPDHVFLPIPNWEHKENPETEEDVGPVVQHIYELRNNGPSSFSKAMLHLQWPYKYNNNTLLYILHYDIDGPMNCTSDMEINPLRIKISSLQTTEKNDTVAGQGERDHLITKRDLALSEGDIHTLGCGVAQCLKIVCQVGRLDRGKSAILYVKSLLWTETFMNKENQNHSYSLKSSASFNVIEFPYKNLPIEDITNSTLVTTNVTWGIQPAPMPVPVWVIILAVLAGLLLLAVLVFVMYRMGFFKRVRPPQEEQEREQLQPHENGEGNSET
cell surface-expressed human αvβ8, sequence (P26012 43-769, chain 2 of 2): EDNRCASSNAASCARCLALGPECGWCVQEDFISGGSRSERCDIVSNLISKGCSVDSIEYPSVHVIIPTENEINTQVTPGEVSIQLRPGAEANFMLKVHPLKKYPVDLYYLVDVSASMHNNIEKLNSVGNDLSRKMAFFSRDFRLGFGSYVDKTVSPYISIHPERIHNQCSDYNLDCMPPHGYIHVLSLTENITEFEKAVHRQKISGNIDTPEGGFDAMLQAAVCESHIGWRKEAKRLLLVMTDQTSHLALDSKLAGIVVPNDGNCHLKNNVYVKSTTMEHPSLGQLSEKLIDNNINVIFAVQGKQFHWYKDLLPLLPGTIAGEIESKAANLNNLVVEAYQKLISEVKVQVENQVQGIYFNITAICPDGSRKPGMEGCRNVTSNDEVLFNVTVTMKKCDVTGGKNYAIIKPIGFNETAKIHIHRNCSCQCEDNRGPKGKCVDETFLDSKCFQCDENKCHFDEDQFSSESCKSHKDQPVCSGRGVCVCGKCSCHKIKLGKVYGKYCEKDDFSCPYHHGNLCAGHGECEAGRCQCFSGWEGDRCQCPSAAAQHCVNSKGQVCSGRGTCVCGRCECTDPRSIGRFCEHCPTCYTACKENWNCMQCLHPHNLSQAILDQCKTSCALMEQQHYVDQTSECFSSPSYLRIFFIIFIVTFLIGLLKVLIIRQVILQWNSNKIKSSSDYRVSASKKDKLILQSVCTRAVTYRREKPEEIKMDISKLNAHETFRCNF

B1: ADWA16 (antibody, V domains shown)
VH: QVQLQQSGAELAKPGASMKMSCKASGYTFSSYWIYWVKQRPGQGLEWIGYINPTTGYTEYNQKFRDKATLTADKSSNTAYMQLSSLTSEDSAVYYCATEGGNWEDYWGQGTTLTVSS
VL: DIQMTQTTSSLSASLGDRVTISCRASQDISNYLNWYQQKPDGTVKLLIYYTSRLYSGVPSRFSGSGSGTDYSLTISNLEPKDIATYYCQQFSELPRTFGGGTKLEIK
Q: With B1 as the binder, how does the “inhibition of adhesion of L229 cells expressing αvβ8 to TGFb1 LAP (potency against ADWA11)” value read?
A: The value was over 10 fold.
